Source: US20090291890A1 (published 2009)
Where “and” joins values, the source holds several entries; their conditions need not be identical. Identical values can stand only once.

Columns and labels:
[1] = molecular target: A122N/G124S-FVIIa (human)
[2] = molecular target: A122N/G124S/A175S-FVIIa (human)
[3] = molecular target: A122N/G124S/A175S/Q286R/M298Q-FVIIa (human)
[4] = molecular target: A122N/G124S/A175S/S222A-FVIIa (human)
[5] = molecular target: Gla swap FIX/S222A/Q286R/M298Q/H373F-FVIIa (human)
[6] = molecular target: Gla swap FIX/S222A/T239V/Q286R-FVIIa (human)
[7] = molecular target: Gla swap FIX/T128N/P129A/Q286R/M298Q-FVIIa (human)
[8] = molecular target: Gla swapFIX/Q366V-FVIIa (human)
[9] = molecular target: K109N/A175S-FVIIa (human)
[10] = molecular target: M298Q/H373F-FVIIa (human)
[11] = molecular target: M298Q/Q366N/H373F-FVIIa (human)
[12] = molecular target: Q286R/M298Q/Q366N-FVIIa (human)
[13] = molecular target: S119N/L121S/A175S-FVIIa (human)
[14] = molecular target: S222A/H257A/Q286R/M298Q-FVIIa (human)
[15] = molecular target: S222A/Q286R/M298Q-FVIIa (human)
[16] = molecular target: S52A/S60A/V158D/E296V/M298Q-FVIIa (human)
[17] = molecular target: T128N/P129A/A175S/Q286R-FVIIa (human)
[18] = molecular target: T128N/P129A/A175S/Q366V-FVIIa (human)
[19] = molecular target: T128N/P129A/A175S/S222A-FVIIa (human)
[20] = molecular target: T128N/P129A/A175S/S222A/H257A/Q286R/M298Q-FVIIa (human)
[21] = molecular target: T128N/P129A/Q286R/M298Q/H373F-FVIIa (human)
[22] = molecular target: T128N/P129A/Q286R/M298Q/Q366N-FVIIa (human)
[23] = molecular target: T128N/P129A/S222A/H257A/Q286R/M298Q-FVIIa (human)
[24] = molecular target: T128N/P129A/S222A/T239V/H257A/Q286R/M298Q-FVIIa (human)
[25] = molecular target: T128N/P129A/T239I/Q286R/M298Q-FVIIa (human)
[26] = molecular target: T128N/P129A/T239I/Q286R/M298Q/H373F-FVIIa (human)
[27] = molecular target: T239I/M298Q/H373F-FVIIa (human)
[28] = molecular target: T239I/Q286R/M298Q/H373F-FVIIa (human)
[29] = molecular target: T239V/M298Q/H373F-FVIIa (human)
[30] = molecular target: T239V/Q286R-FVIIa (human)
[31] = molecular target: T239V/Q286R/M298Q-FVIIa (human)
[32] = molecular target: {Gla swap FIX/M19K/E40L/K43I/Q44S}/Q286R/M298Q-FVIIa (human)
[33] = molecular target: {Gla swap FIX/Q44S}/Q286R/M298Q-FVIIa (human)

antithrombin III, sequence (P01008 33-464): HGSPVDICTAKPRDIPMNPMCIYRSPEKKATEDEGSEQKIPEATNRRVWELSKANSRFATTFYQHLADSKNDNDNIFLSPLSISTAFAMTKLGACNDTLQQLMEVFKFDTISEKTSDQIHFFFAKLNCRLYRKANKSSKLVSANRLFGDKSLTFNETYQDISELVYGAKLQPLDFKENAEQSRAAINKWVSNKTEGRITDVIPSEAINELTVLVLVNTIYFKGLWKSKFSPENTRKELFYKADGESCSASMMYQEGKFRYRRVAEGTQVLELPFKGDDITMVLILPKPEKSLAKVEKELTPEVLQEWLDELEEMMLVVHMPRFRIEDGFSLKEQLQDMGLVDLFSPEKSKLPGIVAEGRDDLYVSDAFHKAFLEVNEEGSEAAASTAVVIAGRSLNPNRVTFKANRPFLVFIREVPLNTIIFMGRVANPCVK

antithrombin III
K0.5 [1]: 372 nM | K0.5 [2]: 1350 nM | K0.5 [3]: 1950 nM | K0.5 [4]: 1550 nM | K0.5 [5]: 164 nM | K0.5 [6]: 2440 nM | K0.5 [7]: 508 nM and 325 nM | K0.5 [8]: 108 nM | K0.5 [9]: 2030 nM | K0.5 [10]: 81.7 nM | K0.5 [11]: 90.8 nM | K0.5 [12]: 324 nM | K0.5 [13]: 1640 nM | K0.5 (S222A-FVIIa (human)): 384 nM | K0.5 [14]: 314 nM | K0.5 [15]: 308 nM | K0.5 (S52A/S60A-FVIIa (human)): 361 nM | K0.5 [16]: 78.8 nM | K0.5 [17]: 9.55 µM | K0.5 [18]: 333 nM | K0.5 [19]: 1910 nM | K0.5 [20]: 3.21 µM | K0.5 [21]: 183 nM | K0.5 [22]: 346 nM | K0.5 [23]: 653 nM and 328 nM | K0.5 [24]: 326 nM | K0.5 [25]: 917 nM | K0.5 [26]: 317 nM | K0.5 [27]: 179 nM | K0.5 [28]: 370 nM | K0.5 [29]: 46.6 nM | K0.5 [30]: 1790 nM | K0.5 [31]: 3.63 µM | K0.5 [32]: 339 nM | K0.5 [33]: 271 nM
